The text below walks through data of CN1709911A.

The target in test [1] is Raji肿瘤细胞核抗原 (Raji肿瘤细胞核提取物 / 固定Raji细胞). Kind of test: antigen binding activity, table 2, against rhTNT-IL2 (IgG1) as control; method not described.
Test [2] has the same target. The test can be described thus: flow cytometry on paraformaldehyde-fixed Raji cells; 5 ul of 1 mg/ml, anti-human IgG-FITC; second of three values.
Test [3] shares this target. Kind of test: flow cytometry on paraformaldehyde-fixed Raji cells; 5 ul of 1 mg/ml, anti-human IgG-FITC; third of three values.
Test [4] shares this target. The test can be described thus: antigen binding activity, table 2; this molecule is the reference; method not described.
Test [5] shares this target. The test can be described thus: flow cytometry on paraformaldehyde-fixed Raji cells; 5 ul of 1 mg/ml, anti-human IgG-FITC; first of three values.

With “肿瘤坏死治疗单抗-白细胞介素2融合蛋白, IgG4重链恒定区, 全长IL2 (antibody)”, the 融合蛋白抗原结合活性 in test [1] was found to be 100%.
In the case of “肿瘤坏死治疗单抗-白细胞介素2融合蛋白, IgG2重链恒定区, IL2(Q22-C58) (antibody)”, in test [1], the 融合蛋白抗原结合活性 was found to be 100%.
For the substance “rhTNT-IL2融合蛋白 (重组人肿瘤坏死治疗单抗-白细胞介素2融合蛋白, IgG1, 连接肽AAAGGGS, 全长IL2) (antibody)”, the 特异结合活性 in test [2] is 98.3%; in test [3] it was 98.6%; in test [5] it was 98.2%. Besides, the 融合蛋白抗原结合活性 in test [4] was 100%.
The substance “肿瘤坏死治疗单抗-白细胞介素2融合蛋白, IgG1重链恒定区, IL2(Q22-C58) (antibody)” had a 融合蛋白抗原结合活性 in test [1] of 100%.
In the case of “肿瘤坏死治疗单抗-白细胞介素2融合蛋白, IgG3重链恒定区, IL2(Q22-C58) (antibody)”, the 融合蛋白抗原结合活性 in test [1] came out at 100%.
For “肿瘤坏死治疗单抗-白细胞介素2融合蛋白, IgG3重链恒定区, 全长IL2 (antibody)”, in test [1], the 融合蛋白抗原结合活性 is 100%.
Still for that read-out and setting: to “肿瘤坏死治疗单抗-白细胞介素2融合蛋白, IgG2重链恒定区, 全长IL2 (antibody)” belongs 100%; to “肿瘤坏死治疗单抗-白细胞介素2融合蛋白, IgG4重链恒定区, IL2(Q22-C58) (antibody)”, 100%.
